In patent US20080280828A1:

Legend:
[1] = molecular target: rat recombinant IgE (Serotech) (rat); test: SPR (BIAcore 2000); ratio of RBA on IgE to RBA on guinea pig IgG
[2] = molecular target: guinea pig IgG (Sigma) (guinea pig); test: SPR (BIAcore 2000), Ig immobilised on CM5 chip, tick sample as analyte
[3] = molecular target: human IgG Fc fragment (ICN) (human); test: as above
[4] = molecular target: rabbit IgG F(ab')2 fragment (ICN) (rabbit); test: as above
[5] = molecular target: rat recombinant IgE (Serotech) (rat); test: as above
[6] = molecular target: guinea pig IgG (Sigma) (guinea pig); test: SPR (BIAcore 2000); RBA further normalised to amount of protein against fSGED6
[7] = molecular target: human IgG Fc fragment (ICN) (human); test: as above
[8] = molecular target: rabbit IgG F(ab')2 fragment (ICN) (rabbit); test: as above
[9] = molecular target: rat recombinant IgE (Serotech) (rat); test: as above
[10] = molecular target: guinea pig IgG (Sigma) (guinea pig); test: SPR (BIAcore 2000); normalised to binding of fSGED6 to IgG, corrected for relative molar amount of ligand
[11] = molecular target: human IgG Fc fragment (ICN) (human); test: as above
[12] = molecular target: rabbit IgG F(ab')2 fragment (ICN) (rabbit); test: as above
[13] = molecular target: rat recombinant IgE (Serotech) (rat); test: as above
[14] = molecular target: human IgG Fc fragment (ICN) (human); test: SPR (BIAcore 2000); ratio of RBA on Fc to RBA on F(ab')2

rat recombinant IgE (Serotech) (rat), sequence (P01855 whole entry, the tested form may be a part): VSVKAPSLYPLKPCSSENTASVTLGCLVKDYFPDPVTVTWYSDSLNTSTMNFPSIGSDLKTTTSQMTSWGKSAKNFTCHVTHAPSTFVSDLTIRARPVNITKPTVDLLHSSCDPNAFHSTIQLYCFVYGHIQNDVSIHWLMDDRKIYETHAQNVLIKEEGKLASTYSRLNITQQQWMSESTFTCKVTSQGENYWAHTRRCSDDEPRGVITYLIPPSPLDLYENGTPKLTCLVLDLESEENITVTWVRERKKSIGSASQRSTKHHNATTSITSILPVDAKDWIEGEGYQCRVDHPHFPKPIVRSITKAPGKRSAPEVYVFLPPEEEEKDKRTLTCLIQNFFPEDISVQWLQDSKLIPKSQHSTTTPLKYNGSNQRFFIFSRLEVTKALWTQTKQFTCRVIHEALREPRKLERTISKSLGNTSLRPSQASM

partially fed (day 6) female tick salivary gland extract
RBAIgE/RBAIgG [1]: 1.2 | Yield-binding (RU2) [2]: 263 RU | Yield-binding (RU2) [3]: 748 RU | Yield-binding (RU2) [4]: 13 RU | Yield-binding (RU2) [5]: 283 RU | RBA/mg protein [6]: 1 | RBA/mg protein [7]: 1.1 | RBA/mg protein [8]: 0 | RBA/mg protein [9]: 1.3 | Relative binding activity (RBA) [10]: 1 | Relative binding activity (RBA) [11]: 1.1 | Relative binding activity (RBA) [12]: 0 | Relative binding activity (RBA) [13]: 1.3

partially fed (day 6) male tick salivary gland extract
RBAFc/RBAF(ab′)2 [14]: 1.1 | RBAIgE/RBAIgG [1]: 1.2 | Yield-binding (RU2) [2]: 719 RU | Yield-binding (RU2) [3]: 1720 RU | Yield-binding (RU2) [4]: 823 RU | Yield-binding (RU2) [5]: 762 RU | RBA/mg protein [6]: 5.5 | RBA/mg protein [7]: 4.9 | RBA/mg protein [8]: 4.5 | RBA/mg protein [9]: 7.3 | Relative binding activity (RBA) [10]: 2.7 | Relative binding activity (RBA) [11]: 2.4 | Relative binding activity (RBA) [12]: 2.2 | Relative binding activity (RBA) [13]: 3.6

partially fed (day 7), dopamine-stimulated female tick saliva
RBAFc/RBAF(ab′)2 [14]: 1.1 | RBAIgE/RBAIgG [1]: 1.2 | Yield-binding (RU2) [2]: 5100 RU | Yield-binding (RU2) [3]: 5830 RU | Yield-binding (RU2) [4]: 2770 RU | Yield-binding (RU2) [5]: 4960 RU | RBA/mg protein [6]: 775 | RBA/mg protein [7]: 328 | RBA/mg protein [8]: 301 | RBA/mg protein [9]: 943 | Relative binding activity (RBA) [10]: 19.4 | Relative binding activity (RBA) [11]: 8.2 | Relative binding activity (RBA) [12]: 7.5 | Relative binding activity (RBA) [13]: 23.6
